Consider one molecule from patent US7572594B2, “Screening assays for agonists or antagonists or receptor activator of NF-κB” (Immunex Corporation, priority 2000, dated 2009).

The test system of one test is mouse TRAP mRNA. Put plainly: Quantitative RT-PCR of TRAP mRNA in RAW 264.7 cells. The format is cell-based. The conditions noted are these: RANKL/LZ 200 ng/ml or TNFα 20 ng/ml, various times.
For test [1], the system named is MMP-9 (SEQ ID NO:11)/luciferase promoter. Put plainly: MMP-9/luciferase reporter in RAW 264.7 cells. The test is classed as cell-based, murine. The note with it: 1 μg/ml for 18 hours. How it is done: Additionally, RAW 264.7 cells (6×10^6 cells) were transfected with 15 μg of MMP-9 (SEQ ID NO:11)/luciferase plasmid DNA using DEAE/dextran. Two hours after transfection, cells were divided into two equal amounts and further incubated for 24 hours. Addition of 1 μg/ml of a leucine zipper form of murine RANK-L for 18 hours was sufficient to induce the MMP-9 (SEQ ID NO:11)/luciferase promoter 10-15 fold.
A general note: In a reporter assay the amount or activity of a reporter protein is the signal.

A further test has as its system mouse MMP-9 mRNA. The experiment in a line: Quantitative RT-PCR of MMP-9 mRNA in RAW 264.7 cells. The test is classed as cell-based. The conditions noted are these: RANKL/LZ 200 ng/ml or TNFα 20 ng/ml, various times. The text has this: MMP-9 mRNA is elevated greater than 350-fold by RANK-L, but is not increased by TNFα. This specificity is helpful in screening for inhibitors of RANK signal transduction.

B1: leucine zipper form of murine RANK-L: soluble leucine zipper fusion of murine RANK-L (protein)
chain: YFRAQMDPNRISEDSTHCFYRILRLHENADLQDSTLESEDTLPDSCRRMKQAFQGAVQKELQHIVGPQRFSGAPAMMEGSWLDVAQRGKPEAQPFAHLTINAASIPSGSHKVTLSSWYHDRGWAKISNMTLSNGKLRVNQDGFYYLYANICFRHHETSGSVPTDYLQLMVYVVKTSIKIPSSHNLMKGGSTKNWSGNSEFHFYSINVGGFFKLRAGEEISIQVSNPSLLDPDQDATYFGAFKVQDID
modifications: left off: a dimerising Fc or GST
For B1, the “TRAP mRNA elevation” value in the test with mouse TRAP mRNA is “greater than 250 fold”. For the same molecule, in test [1], the “induction of MMP-9/luciferase promoter” value is reported as 10-15 fold. Further, the “MMP-9 mRNA elevation” value in the test on mouse MMP-9 mRNA is reported as “greater than 350 fold”.
